The source of these data is patent publication US20180092984A1 (Seagen, published 2018).

Experiment [1] deals with T1, human CD48 (human, UniProt P09326 27-220).
T1 construct: whole, on cells; also called BLAST-1; SLAMF2
T1 sequence (looked up): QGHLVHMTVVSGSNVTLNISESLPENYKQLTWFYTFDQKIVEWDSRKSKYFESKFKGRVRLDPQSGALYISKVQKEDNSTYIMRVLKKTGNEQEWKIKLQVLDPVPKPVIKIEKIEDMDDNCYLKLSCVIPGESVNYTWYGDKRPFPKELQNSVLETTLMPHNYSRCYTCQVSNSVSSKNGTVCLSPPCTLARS
The experiment is described as follows: flow cytometry saturation binding on U-266 cells. How it is done:
(§1) After one hour incubation on ice, cells were washed twice with phosphate buffered saline containing 2% fetal bovine serum and 0.02% sodium azide. Fluorescence was detected on a LSRII flow cytometer and Kd values were determined using one-site binding (hyperbola) non-linear regression in GraphPad Prism.
On the technique in general: In flow cytometry, cells or beads pass a laser one at a time.

Experiment [2] has as its target T1, human CD48. As to the kind of experiment: flow cytometry saturation binding, Alexa Fluor-647 antibody on U-266 cells. How it is done:
as §1

For experiment [3], the target named is cynomolgus monkey CD48 (cynomolgus monkey). The experiment is described as follows: flow cytometry saturation binding on CHO-DG44 cells expressing cynomolgus monkey CD48.
The target in experiment [4] is T1, human CD48. As to the kind of experiment: flow cytometry saturation binding, U-266 cells against CHO-DG44 cynomolgus monkey CD48 cells. How it is done:
as §1

Experiment [5] concerns the target cynomolgus monkey CD48 (cynomolgus monkey). As to the kind of experiment: flow cytometry saturation binding, Alexa Fluor-647 antibody on CHO-DG44 cells expressing cynomolgus monkey CD48.

What is called Kd is a measure of binding affinity in units of concentration. With cMEM102 (antibody), the fold lower Kd compared to mMEM102 (with human CD48 [1]; in experiment [3]) was greater than 4 fold throughout. Also, the Kd in the experiment with human CD48 [2] turned out to be 5.8 nM; in experiment [5] it was 40.5 nM. In the experiment with human CD48 [4], this molecule came in with a fold stronger binding affinity to human CD48 compared to cynomolgus monkey CD48 of 6 fold.

In the case of mMEM102 (antibody), the figures for the Kd (with human CD48 [2]; in experiment [5]) were 20.8 nM and 165 nM, respectively. The fold stronger binding affinity to human CD48 compared to cynomolgus monkey CD48 in the experiment with human CD48 [4] was 6 fold.

B1: hMEM102-HALA (antibody, V domains shown)
VH: QVQLVQSGSELKKPGASVKVSCKASGYTFTDFGMNWVRQAPGQGLEWMGWINTFTGEPSYGNVFKGRFVFSLDTSVSTAYLQISSLKAEDTAVYYCARRHGNGNVFDSWGQGTLVTVSS
VL: EIVLTQSPDFQSVTPKEKVTITCRASQSIGSNIHWYQQKPDQSPKLLIKYTSESISGVPSRFSGSGSGTDFTLTINSLEAEDAATYYCQQSNSWPLTFGGGTKVEIKR
notes: also called humanized MEM102 antibody; humanized MEM102-HALA antibody
As for B1, the “fold lower Kd compared to mMEM102” value (with human CD48 [1]; in experiment [3]) was greater than 4 fold throughout. The Kd in the experiment with human CD48 [2] stood at 5 nM; in experiment [5], 31.1 nM. Further, in the experiment with human CD48 [4], the “fold stronger binding affinity to human CD48 compared to cynomolgus monkey CD48” value was roughly 6 fold.
